Experimental data: US20150132269

Experiments:
Experiment in all cases: cell_activity
ZFN 46801 (synthetic) = conditions: pair with 46880
ZFN 46934 (synthetic) = conditions: pair with 47923
ZFN 46816 (synthetic) = conditions: pair with 47923
ZFN 46786 (synthetic) = conditions: pair with 46880
ZFN 45843 (synthetic) = conditions: pair with 45844, CD34+ cells
ZFN 46189 (synthetic) = conditions: pair with 46188, K562
ZFN 46228 (synthetic) = conditions: pair with 46226, K562
ZFN 47923 (synthetic) = conditions: pair with 46801
ZFN 46880 (synthetic) = conditions: pair with 46801
ZFN 46216 (synthetic) = conditions: pair with 46217, K562
ZFN 46247 (synthetic) = conditions: pair with 46246, K562
ZFN 46229 (synthetic) = conditions: pair with 46230, K562
ZFN 46188 (synthetic) = conditions: pair with 46189, K562
ZFN 46240 (synthetic) = conditions: pair with 46241, K562
ZFN 46164 (synthetic) = conditions: pair with 46163, K562
ZFN 46181 (synthetic) = conditions: pair with 46180, K562
ZFN 46209 (synthetic) = conditions: pair with 46208, K562
ZFN 46208 (synthetic) = conditions: pair with 46209, K562
ZFN 46226 (synthetic) = conditions: pair with 46228, K562
ZFN 46217 (synthetic) = conditions: pair with 46216, K562
ZFN 46246 (synthetic) = conditions: pair with 46247, K562
ZFN 46163 (synthetic) = conditions: pair with 46164, K562
ZFN 45844 (synthetic) = conditions: pair with 45843, CD34+ cells
ZFN 47021 (synthetic) = conditions: pair with 45843
ZFN 46180 (synthetic) = conditions: pair with 46181, K562
ZFN 46241 (synthetic) = conditions: pair with 46240, K562
ZFN 46230 (synthetic) = conditions: pair with 46229, K562
ZFN 46158 (synthetic) = conditions: pair with 46156, K562, Cel-I
ZFN 46156 (synthetic) = conditions: pair with 46158, K562

AAAGCAACTGTTAGCTTGCACTAGACTA (double strand) [45848/46801 target]
activity (ZFN 46801 (synthetic)): 87 % NHEJ (D0) | activity (ZFN 46934 (synthetic)): 80 % NHEJ (D0) | activity (ZFN 46816 (synthetic)): 29.9 % indels | activity (ZFN 46786 (synthetic)): 71 % NHEJ (D0)

AAGCAACTGTTAGCTTGCACTAGACTAG (double strand) [45843 target]
activity (ZFN 45843 (synthetic)): 78 % NHEJ (D0)

ACACCCTGTGATCTTGTGGGACCCCTCT (double strand) [46189 target]
activity (ZFN 46189 (synthetic)): 12.8 % NHEJ

ATAGGGGTCGCGGTAGGGAGTTGTCGGC (double strand) [46228 target]
activity (ZFN 46228 (synthetic)): 37.8 % NHEJ

CACAGGCTCCAGGAAGGGTTTGGCCTCT (double strand) [45849/46880 target]
activity (ZFN 47923 (synthetic)): 82 % NHEJ (D0) | activity (ZFN 46880 (synthetic)): 87 % NHEJ (D0)

CAGGCTGGGCTGGACAGAGGGGTCCCAC (double strand) [46216 target]
activity (ZFN 46216 (synthetic)): 16.6 % NHEJ

CCGTCTACATAGAGGCCCTTCCTGCTTG (double strand) [46247 target]
activity (ZFN 46247 (synthetic)): 17.3 % NHEJ

CCTATCAGTGCCGACCAAGCACACAAGA (double strand) [46229 target]
activity (ZFN 46229 (synthetic)): 37.2 % NHEJ

CCTGAGAAGGTGGGGAGCTCACAGCCTC (double strand) [46188 target]
activity (ZFN 46188 (synthetic)): 12.8 % NHEJ

CTCACAGGACATGCAGCAGTGTGTGCCG (double strand) [46240 target]
activity (ZFN 46240 (synthetic)): 25 % NHEJ

GAAGGGAAGTGGGTATGGGGCAGCCCAT (double strand) [46164 target]
activity (ZFN 46164 (synthetic)): 21.9 % NHEJ

GCAATGCTTGGAGGCTGTGAGCTCCCCA (double strand) [46181 target]
activity (ZFN 46181 (synthetic)): 15.2 % NHEJ

GCCTGGGTGTGCATCTTGTGTGCTTGGT (double strand) [46209 target]
activity (ZFN 46209 (synthetic)): 28 % NHEJ

GGGCTGGACAGAGGGGTCCCACAAGATC (double strand) [46208 target]
activity (ZFN 46208 (synthetic)): 28 % NHEJ

GTGCCGACCAAGCACACAAGATGCACAC (double strand) [46226 target]
activity (ZFN 46226 (synthetic)): 37.8 % NHEJ

GTGTGCATCTTGTGTGCTTGGTCGGCAC (double strand) [46217 target]
activity (ZFN 46217 (synthetic)): 16.6 % NHEJ

GTGTGGCTCCTTAAGGTGACCCAGCAGC (double strand) [46246 target]
activity (ZFN 46246 (synthetic)): 17.3 % NHEJ

TAGAATTGGCCTGGGACATTCATTATTT (double strand) [46163 target]
activity (ZFN 46163 (synthetic)): 21.9 % NHEJ

TCACAGGCTCCAGGAAGGGTTTGGCCTC (double strand) [45844 target]
activity (ZFN 45844 (synthetic)): 78 % NHEJ (D0) | activity (ZFN 47021 (synthetic)): 82 % NHEJ (D0)

TCATCCTGGTACCAGGAAGGCAATGGGC (double strand) [46180 target]
activity (ZFN 46180 (synthetic)): 15.2 % NHEJ

TCCCCAAGGCTGTGCCCAGCCTTCAGTG (double strand) [46241 target]
activity (ZFN 46241 (synthetic)): 25 % NHEJ

TCGCGGTAGGGAGTTGTCGGCACACACT (double strand) [46230 target]
activity (ZFN 46230 (synthetic)): 37.2 % NHEJ

TCTAGGAAGGGAAGTGGGTATGGGGCAG (double strand) [46158 target]
activity (ZFN 46158 (synthetic)): 30.4 % NHEJ

TGGCCTGGGACATTCATTATTTAGCCAC (double strand) [46156 target]
activity (ZFN 46156 (synthetic)): 30.4 % NHEJ
